Consider eleven molecules from publication PMC7460627 (International Journal of Molecular Sciences, 2020).

Experiment [1] has as its target lettuce eukaryotic translation initiation factor 4E, eIF4E^0 (susceptible cultivar) (lettuce). The experiment is described as follows: other fluorescence titration; steady state decrease of eIF4E tryptophan intrinsic fluorescence upon titration by VPg or VPg peptide; 25 °C, 20 mM HEPES pH 7.5, 0.25 mM NaCl, 1 mM DTT.
Experiment [2] concerns the target VPg_(88–111)*, doubly labeled fluorescent derivative of VPg_(88–111) (lettuce mosaic virus (LMV strain AF199)). The experiment is described as follows: other fluorescence titration; steady state titration by eIF4E of 250 nM VPg_(88–111)*, read by the AEDANS to fluorescein resonance energy transfer within the peptide; AEDANS excited at 337 nm; simple bimolecular equilibrium model; 25 °C, 20 mM HEPES pH 7.5, 0.25 mM NaCl, 1 mM DTT.

Experiment [3] concerns the target lettuce eIF4E^2 (resistant cultivar; A70P) (lettuce). The experiment is described as follows: other fluorescence titration; steady state decrease of eIF4E tryptophan intrinsic fluorescence upon titration by VPg or VPg peptide; 25 °C, 20 mM HEPES pH 7.5, 0.25 mM NaCl, 1 mM DTT.
Experiment [4] deals with lettuce eIF4E N-terminus-deleted form, eIF4E^0 [∆1–46] (lettuce). The description is as above.
The target of experiment [5] is lettuce eIF4E^1 (resistant cultivar; ∆(108–110)H and A186S) (lettuce). Described as above.
Experiment [6] deals with lettuce eIF4E^2 (resistant cultivar; A70P) (lettuce). The experiment is described as follows: other fluorescence titration; as a1, but eIF4E 0.5 µM pre-incubated with m7GTP 2 µM prior to titration by VPg; 25 °C.
The target in experiment [7] is lettuce eukaryotic translation initiation factor 4E, eIF4E^0 (susceptible cultivar) (lettuce). The description is as above.
Experiment [8] has as its target lettuce eIF4E^1 (resistant cultivar; ∆(108–110)H and A186S) (lettuce). The description is as above.
In experiment [9] the target is lettuce eukaryotic translation initiation factor 4E, eIF4E^0 (susceptible cultivar) (lettuce). The experiment is described as follows: stopped-flow fluorescence kinetics; quenching of eIF4E tryptophan fluorescence after mixing 0.3 µM eIF4E with peptide (1 µM; 2.5, 5, 7.5 and 10 µM); excitation 283 nm; single exponential fit, kobs.
Experiment [10] deals with T1, lettuce eIF4E (Lactuca sativa, UniProt A0A2J6L8Y7).
T1 construct: to obtain untagged full-length eIF4E and eIF4E∆(1–46); made in house; host or cells: E. coli BL21-AI
Nature of the experiment: Peptide affinity from eIF4E intrinsic fluorescence decay. In kind it is binding. The text has this:
(§1) For optical characteristics of the instrument, see [36].

The test system of experiment [11] is lettuce eIF4E (all forms). Nature of the experiment: Comparison of VPg / m7GTP binding to eIF4E forms (competition, overall affinity).
From the text: as §1

For experiment [12], the target named is T2, eIF4E (Lactuca sativa, UniProt A0A2J6L8Y7).
T2 construct: to obtain untagged full-length eIF4E and eIF4E∆(1–46); made in house; host or cells: E. coli BL21-AI
Nature of the experiment: Stopped-flow kinetics, quenching of eIF4E tryptophan fluorescence. In kind it is binding, lettuce. How it is done: We hypothesized that the 107–120 region could modulate the mechanism of association, the details of which cannot be grasped through equilibrium thermodynamics. Consequently, fast kinetics measurement were performed by stopped flow to compare VPg88–111 and VPg88–120 association with eIF4E (Figure 3).
(A) The quenching of eIF4E tryptophan fluorescence was monitored after mixing 0.3 µM eIF4E with 1 µM VPg88–111 (final concentration). The excitation wavelength was 283 nm. Inset, plots of 1/kobs versus 1/[peptide] at 2.5, 5, 7.5 and 10 µM peptide concentration. VPg88–111 open circles, VPg88–120, open triangles. (B) Stopped-flow traces of VPg88–111*–eIF4E complex formation acquired at 520 nm upon excitation at 480 nm. VPg88–111*: doubly labeled fluorescent derivative of VPg88–111.
The eIF4E tryptophan fluorescence decrease concomitant to association was monitored for several peptide concentrations (Figure S3). A single exponential model fitted satisfactorily with the experimental data allowing the determination of kobs, the apparent constant of the complex formation.
as §1

Experiment [13] addresses T3, lettuce eukaryotic translation initiation factor 4E, eIF4E^0 (susceptible cultivar) (lettuce, UniProt A0A2J6L8Y7 1-235).
T3 chain: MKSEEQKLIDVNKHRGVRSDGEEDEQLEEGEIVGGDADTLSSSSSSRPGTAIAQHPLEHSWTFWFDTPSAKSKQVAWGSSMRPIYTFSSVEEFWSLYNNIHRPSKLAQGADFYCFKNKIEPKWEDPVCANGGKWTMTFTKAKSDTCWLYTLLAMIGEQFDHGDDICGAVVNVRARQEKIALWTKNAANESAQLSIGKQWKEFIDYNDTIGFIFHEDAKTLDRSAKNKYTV

Ends that are not written are not given here.

For the molecule VPg_(107–120) synthetic peptide, the Kd in experiment [1] turned out to be 852 nM.

Regarding “lettuce eukaryotic translation initiation factor 4E, eIF4E^0 (susceptible cultivar) (from UniProt A0A2J6L8Y7 1-235) (natural protein)”, in [2], the Kd was 63 nM.

As for “LMV VPg from the non-resistance-breaking strain (LMV0) (natural protein)”, the figures for the Kd in experiment [3], in experiment [4] and in experiment [5] were 288 nM, 276 nM and 340 nM, respectively. In addition, the KD with m7GTP amounted to 703 nM in experiment [6], 746 nM in [7] and 632 nM in experiment [8].

As to VPg_(88–120) synthetic peptide, in experiment [9], the k2 (second step of the two-step model, conformational transition of the bound peptide) was 33 s⁻¹. For the same molecule, the Kd in experiment [1] was determined as 67 nM.

Consider LSGGEIESEHMRSG [VPg107–120], for which the Kd in experiment [10] was determined as 852 ± 57 nM.

The molecule VPg_(88–111) synthetic peptide gave a Kd in experiment [1] of 72 nM.

As for `Cn1c[n+]([C@@H]2O[C@H](COP(=O)([O-])OP(=O)(O)OP(=O)(O)O)[C@@H](O)[C@H]2O)c2nc(N)[nH]c(=O)c21` [m7GTP], the “competition between VPg and m7GTP” value in experiment [11] was “compete for their binding to eIF4E”.

Turning to VFSDIGLVQDAFGKERLKLLSGGE [VPg88–111], the “affinity for eIF4E, in words” value in [10] (VPg88–111 versus VPg88–120) is reported as “comparable affinities”. Moreover, the “dependence of 1/kobs or kobs on peptide concentration” value in [12] (0.3 µM eIF4E, 2.5, 5, 7.5 and 10 µM peptide, single exponential fit) is reported as “gave a straight line, featuring the pseudo first order nature of the association depending on ligand concentration”. The “kinetic model of complex formation” value in experiment [12] (stopped flow, eIF4E tryptophan quenching) is on record as “one-step process”.

In experiment [10], “VFSDIGLVQDAFGKERLKLLSGGEIESEHMRSG [VPg88–120]” registered a Kd of 67 ± 7 nM.

B1: LMV VPg from the non-resistance-breaking strain (LMV0) (natural protein)
chain: GKGKRQRQKLRYRQARDNKVGIEVYGDDATMEHYFGAAYTEKGKKSGKTKGMGTKNRRFVNMYGYNPEDFSFIRFLDPLTGKTMDEQVFSDISLVQDAFSKERLKLLSEGEIESEHMRNGIRAYLVKNLTTAALEIDMTPHNSCQLGAKTNNIAGYVDREYELRQTGEARVVAPALIPKDNPITDEDIPVKHE
In the case of B1, binding in experiment [13] was characterised by a dissociation constant (Kd) of 202 nM.

B2: whole VPg from LMV-AF199 strain (natural protein)
chain: GKGKRQRQKLRYRQARDNKVGIEVYGDDATMEHYFGAAYTEKGKKSGKTKGMGTKNRKFVNMYGYNPEDFSFIRFLDPLTGKTMDEQVFSDIGLVQDAFGKERLKLLSGGEIESEHMRSGIRAYLVKNLTTAALEIDMTPHNSCQLGIKTNNIAGFVDREYELRQTGEARVVAPALIPKDNPITDEDIPVKHE
In the case of B2, binding in [13] was put at a Kd of 82 nM.
